Patent US20230357431A1
Where two headings read alike, the source gives them in different places. Values belong to the substance of their own block, whether it stands above or below them.

Experiments:
[1] = biological target: VH1VL1-CD8ATD-CD137CSD-CD3zSSD fusion (anti-P329G chimeric antigen receptor)
[2] = biological target: VL1VH3-CD8ATD-CD137CSD-CD3zSSD fusion (anti-P329G chimeric antigen receptor, VLVH orientation)
[3] = biological target: VH1VL1-CD8ATD-CD137CSD-CD3zSSD fusion (anti-P329G chimeric antigen receptor); remark: listed apart in the source
[4] = biological target: VH2VL1-CD8ATD-CD137CSD-CD3zSSD fusion (anti-P329G chimeric antigen receptor)
Chain of VH2VL1-CD8ATD-CD137CSD-CD3zSSD fusion (anti-P329G chimeric antigen receptor) (chain, as listed by the source P329G P329G): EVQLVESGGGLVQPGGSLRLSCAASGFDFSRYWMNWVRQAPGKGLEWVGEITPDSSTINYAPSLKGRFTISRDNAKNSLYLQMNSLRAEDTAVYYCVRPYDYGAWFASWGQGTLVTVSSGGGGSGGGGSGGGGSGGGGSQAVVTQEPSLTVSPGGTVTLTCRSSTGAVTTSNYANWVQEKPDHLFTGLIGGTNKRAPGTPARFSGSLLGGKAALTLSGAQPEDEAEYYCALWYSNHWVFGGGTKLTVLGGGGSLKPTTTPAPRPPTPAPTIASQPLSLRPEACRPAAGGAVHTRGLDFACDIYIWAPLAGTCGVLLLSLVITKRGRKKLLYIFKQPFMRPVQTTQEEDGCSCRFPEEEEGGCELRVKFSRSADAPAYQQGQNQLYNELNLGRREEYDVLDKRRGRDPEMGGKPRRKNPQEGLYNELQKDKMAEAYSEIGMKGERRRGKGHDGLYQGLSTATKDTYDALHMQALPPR

[5] = biological target: VH3VL1-CD8ATD-CD137CSD-CD3zSSD fusion (anti-P329G chimeric antigen receptor)
Chain of VH3VL1-CD8ATD-CD137CSD-CD3zSSD fusion (anti-P329G chimeric antigen receptor) (chain, as listed by the source P329G P329G): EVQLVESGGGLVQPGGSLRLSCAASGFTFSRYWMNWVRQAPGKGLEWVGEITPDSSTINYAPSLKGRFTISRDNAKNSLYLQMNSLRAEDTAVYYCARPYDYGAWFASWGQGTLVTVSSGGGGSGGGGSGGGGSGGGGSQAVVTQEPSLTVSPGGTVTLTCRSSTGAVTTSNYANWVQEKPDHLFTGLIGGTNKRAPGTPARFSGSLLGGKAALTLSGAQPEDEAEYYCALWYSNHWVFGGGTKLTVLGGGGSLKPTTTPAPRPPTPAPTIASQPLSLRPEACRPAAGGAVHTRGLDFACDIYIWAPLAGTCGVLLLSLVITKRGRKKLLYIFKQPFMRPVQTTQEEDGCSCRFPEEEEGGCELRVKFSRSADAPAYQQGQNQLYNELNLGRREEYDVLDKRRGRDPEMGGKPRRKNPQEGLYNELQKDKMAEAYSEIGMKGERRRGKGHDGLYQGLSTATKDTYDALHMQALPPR

[6] = biological target: VL1VH3-CD8ATD-CD137CSD-CD3zSSD fusion (anti-P329G chimeric antigen receptor, VLVH orientation); remark: listed apart in the source
[7] = biological target: VH2VL1-CD8ATD-CD137CSD-CD3zSSD fusion (anti-P329G chimeric antigen receptor); remark: listed apart in the source
[8] = biological target: VH3VL1-CD8ATD-CD137CSD-CD3zSSD fusion (anti-P329G chimeric antigen receptor); remark: listed apart in the source
[9] = biological target: VL1VH3-CD8ATD-CD137CSD-CD3zSSD fusion (anti-P329G chimeric antigen receptor, VLVH orientation); remark: listed apart in the source
[10] = biological target: VH1VL1-CD8ATD-CD137CSD-CD3zSSD fusion (anti-P329G chimeric antigen receptor); remark: listed apart in the source
[11] = biological target: VH2VL1-CD8ATD-CD137CSD-CD3zSSD fusion (anti-P329G chimeric antigen receptor); remark: listed apart in the source
[12] = biological target: VH3VL1-CD8ATD-CD137CSD-CD3zSSD fusion (anti-P329G chimeric antigen receptor); remark: listed apart in the source
[13] = biological target: VL1VH3-CD8ATD-CD137CSD-CD3zSSD fusion (anti-P329G chimeric antigen receptor, VLVH orientation); remark: listed apart in the source
[14] = biological target: VH1VL1-CD8ATD-CD137CSD-CD3zSSD fusion (anti-P329G chimeric antigen receptor); remark: listed apart in the source
[15] = biological target: VH2VL1-CD8ATD-CD137CSD-CD3zSSD fusion (anti-P329G chimeric antigen receptor); remark: listed apart in the source
[16] = biological target: VH3VL1-CD8ATD-CD137CSD-CD3zSSD fusion (anti-P329G chimeric antigen receptor); remark: listed apart in the source
[17] = biological target: VL1VH3-CD8ATD-CD137CSD-CD3zSSD fusion (anti-P329G chimeric antigen receptor, VLVH orientation); remark: listed apart in the source

Chain of VH1VL1-CD8ATD-CD137CSD-CD3zSSD fusion (anti-P329G chimeric antigen receptor) (chain, as listed by the source P329G P329G): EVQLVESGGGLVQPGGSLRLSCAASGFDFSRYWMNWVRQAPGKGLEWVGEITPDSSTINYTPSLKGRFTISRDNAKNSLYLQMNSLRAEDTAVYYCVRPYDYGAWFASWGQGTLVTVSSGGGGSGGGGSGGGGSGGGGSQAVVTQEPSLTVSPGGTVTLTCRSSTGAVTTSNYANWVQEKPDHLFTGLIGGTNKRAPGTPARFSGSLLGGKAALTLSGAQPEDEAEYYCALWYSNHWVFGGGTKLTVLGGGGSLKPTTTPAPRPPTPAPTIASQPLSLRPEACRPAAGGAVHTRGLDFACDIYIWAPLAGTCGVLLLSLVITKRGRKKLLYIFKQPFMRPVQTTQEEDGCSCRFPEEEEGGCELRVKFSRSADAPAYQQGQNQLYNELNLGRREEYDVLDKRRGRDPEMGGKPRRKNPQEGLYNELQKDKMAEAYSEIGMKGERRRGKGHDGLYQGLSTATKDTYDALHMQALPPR
Chain of VL1VH3-CD8ATD-CD137CSD-CD3zSSD fusion (anti-P329G chimeric antigen receptor, VLVH orientation) (chain, as listed by the source P329G P329G): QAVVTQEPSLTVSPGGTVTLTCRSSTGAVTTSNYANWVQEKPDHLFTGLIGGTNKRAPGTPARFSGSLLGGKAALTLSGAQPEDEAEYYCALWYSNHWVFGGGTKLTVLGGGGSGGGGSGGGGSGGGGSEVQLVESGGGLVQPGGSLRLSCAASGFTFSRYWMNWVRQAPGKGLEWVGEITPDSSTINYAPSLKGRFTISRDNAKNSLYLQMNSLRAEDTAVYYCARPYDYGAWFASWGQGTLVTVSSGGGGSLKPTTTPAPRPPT

EC50, Jurkat NFAT luciferase reporter (RLU/s), WSUDLCL2 target cells 5:1; the curve is flat (no activation), so the fitted value has no meaning [1]: 0.0485 pM
EC50, Jurkat NFAT luciferase reporter (RLU/s), WSUDLCL2 target cells 5:1; the curve is flat (no activation), so the fitted value has no meaning [2]: 0.000234 pM
Substance: anti-CD20 (GA101) LALA IgG1 (antibody)

EC50, Jurkat NFAT luciferase reporter (RLU/s), WSUDLCL2 target cells 5:1; sigmoid curve with upper plateau [3]: 8.14 pM
EC50, Jurkat NFAT luciferase reporter (RLU/s), WSUDLCL2 target cells 5:1; sigmoid curve with upper plateau [4]: 10.4 pM
EC50, Jurkat NFAT luciferase reporter (RLU/s), WSUDLCL2 target cells 5:1; sigmoid curve with upper plateau [5]: 5.82 pM
EC50, Jurkat NFAT luciferase reporter (RLU/s), WSUDLCL2 target cells 5:1; sigmoid curve with upper plateau [6]: 6.19 pM
Substance: anti-CD20 (GA101) D246A P329G IgG1 (antibody)

EC50, Jurkat NFAT luciferase reporter (RLU/s), WSUDLCL2 target cells 5:1, non-targeting antibody; the curve stays at about 60 to 90 RLU/s (no activation), so the fitted value has no meaning [7]: 293 pM
EC50, Jurkat NFAT luciferase reporter (RLU/s), WSUDLCL2 target cells 5:1, non-targeting antibody; flat at about 90 RLU/s with a small rise to about 190 RLU/s at the last point, no plateau [8]: 43200 pM
EC50, Jurkat NFAT luciferase reporter (RLU/s), WSUDLCL2 target cells 5:1, non-targeting antibody; the curve stays at about 60 to 110 RLU/s (no activation), so the fitted value has no meaning [9]: 7420 pM
Substance: DP47 P329G LALA (antibody)

EC50, Jurkat NFAT luciferase reporter (RLU/s), WSUDLCL2 target cells 5:1; sigmoid curve with upper plateau [10]: 8.1 pM
EC50, Jurkat NFAT luciferase reporter (RLU/s), WSUDLCL2 target cells 5:1; sigmoid curve with upper plateau [11]: 6.93 pM
EC50, Jurkat NFAT luciferase reporter (RLU/s), WSUDLCL2 target cells 5:1; sigmoid curve with upper plateau [12]: 7.57 pM
EC50, Jurkat NFAT luciferase reporter (RLU/s), WSUDLCL2 target cells 5:1; sigmoid curve with upper plateau [13]: 6.58 pM
Substance: anti-CD20 (GA101) P329G LALA IgG1 (antibody)

EC50, Jurkat NFAT luciferase reporter (RLU/s), WSUDLCL2 target cells 5:1; the curve is flat (no activation), so the fitted value has no meaning [14]: 2.19 pM
EC50, Jurkat NFAT luciferase reporter (RLU/s), WSUDLCL2 target cells 5:1; the curve is flat (no activation), so the fitted value has no meaning [15]: 0.000119 pM
EC50, Jurkat NFAT luciferase reporter (RLU/s), WSUDLCL2 target cells 5:1; the curve is flat (no activation), so the fitted value has no meaning [16]: 85 pM
EC50, Jurkat NFAT luciferase reporter (RLU/s), WSUDLCL2 target cells 5:1; the curve is flat (no activation), so the fitted value has no meaning [17]: 78.3 pM
Substance: anti-CD20 (GA101) wild type IgG1 (antibody)
